# Test results taken from US6565869 (ISTITUTO DI RICERCHE DI BIOLOGIA MOLECOLARE P ANGELETTI S P …, dated 2003).
# Residue numbers refer to the chain shown, from its start.
# T1: CNTF receptor-α (CNTFRα) (UniProt P26992 23-342, limits assumed)
# T1 construct: also called CNTFRa; CNTF a-receptor
# T1 sequence (looked up): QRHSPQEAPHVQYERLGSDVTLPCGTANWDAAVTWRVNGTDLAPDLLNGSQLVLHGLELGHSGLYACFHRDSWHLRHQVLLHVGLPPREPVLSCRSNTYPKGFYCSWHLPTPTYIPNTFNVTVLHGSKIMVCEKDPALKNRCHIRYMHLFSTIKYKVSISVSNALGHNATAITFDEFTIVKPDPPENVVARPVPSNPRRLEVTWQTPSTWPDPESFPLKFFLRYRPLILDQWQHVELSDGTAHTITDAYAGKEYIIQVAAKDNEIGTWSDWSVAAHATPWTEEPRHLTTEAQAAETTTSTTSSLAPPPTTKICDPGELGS
# B1: hCNTF (human ciliary neurotrophic factor), wild type (ligand)
# chain: MAFTEHSPLTPHRRDLCSRSIWLARKIRSDLTALTESYVKHQGLNKNINLDSADGMPVASTDQWSELTEAERLQENLQAYRTFHVLLARLLEDQQVHFTPTEGDFHQAIHTLLLQVAAFAYQIEELMILLEYKIPRNEADGMPINVGDGGLFEKKLWGLKVLQELSQWTVRSIHDLRFISSHQTGIPARGSHYIANNKKM
# notes: also called human CNTF
# B2: (Asp30Gln/Ser166Asp/Gln167His) hCNTF (ligand)
# chain: B1 chain with D30Q, S166D, Q167H
# B3: (Ser166Asp/Gln167Ala) hCNTF (ligand)
# chain: B1 chain with S166D, Q167A
# B4: (Gln167Ala) hCNTF (ligand)
# chain: B1 chain with Q167A
# B5: (Gln167Ala/Thr169Ser) hCNTF (ligand)
# chain: B1 chain with Q167A, T169S
# B6: (Gln167Ala/Arg177Leu) hCNTF (ligand)
# chain: B1 chain with Q167A, R177L
# B7: (Ser166Gly/Gln167Ala) hCNTF (ligand)
# chain: B1 chain with S166G, Q167A
# B8: (Gln163Ser/Gln167His) hCNTF (ligand)
# chain: B1 chain with Q163S, Q167H
# B9: (Lys160Gln/Gln167Ala) hCNTF (ligand)
# chain: B1 chain with K160Q, Q167A
# B10: (Phe152Ala/Ser166Asp/Gln167His) hCNTF (ligand)
# chain: B1 chain with F152A, S166D, Q167H
# B11: (Thr169Ile/His174Ala) hCNTF (ligand)
# chain: B1 chain with T169I, H174A
# notes: also called (Thr169Ile/His174Ala) hCNTP
# B12: (Val161Leu/Gln167Ala) hCNTF (ligand)
# chain: B1 chain with V161L, Q167A
# B13: (Lys160Gln/Gln167Thr) hCNTF (ligand)
# chain: B1 chain with K160Q, Q167T
# B14: (Gln167Ala/His174Ala) hCNTF (ligand)
# chain: B1 chain with Q167A, H174A
# B15: (Ser166Asp/Gln167Ala/Thr169Leu) hCNTF (ligand)
# chain: B1 chain with S166D, Q167A, T169L
# B16: (Gln63Arg/Ser166Asp/Gln167His) hCNTF (ligand)
# chain: B1 chain with Q63R, S166D, Q167H
# B17: (Gln167Tyr) hCNTF (ligand)
# chain: B1 chain with Q167Y
# B18: (Val170Arg/His174Ala) hCNTF (ligand)
# chain: B1 chain with V170R, H174A
# B19: (Lys155Ala/Ser166Asp/Gln167His) hCNTF (ligand)
# chain: B1 chain with K155A, S166D, Q167H
# B20: (Gln63Arg) hCNTF (ligand)
# chain: B1 chain with Q63R
# B21: (Gln167Ala/Thr169Leu) hCNTF (ligand)
# chain: B1 chain with Q167A, T169L
# B22: (Ser166Asp/Gln167His) hCNTF (ligand)
# chain: B1 chain with S166D, Q167H
# notes: also called DH-CNTF; DH-hCNTF
# B23: (Ser166Ala/Gln167Ala) hCNTF (ligand)
# chain: B1 chain with S166A, Q167A
# B24: (Ser166Asp/Gln167Ala/Arg177Phe) hCNTF (ligand)
# chain: B1 chain with S166D, Q167A, R177F
# B25: (Gln167Ala/Thr169Leu/Phe178Ile) hCNTF (ligand)
# chain: B1 chain with Q167A, T169L, F178I
# B26: (Gln167Thr) hCNTF (ligand)
# chain: B1 chain with Q167T
# B27: (Ser166Asn/Gln167Ala) hCNTF (ligand)
# chain: B1 chain with S166N, Q167A
# B28: (Ser166His/Gln167Ala) hCNTF (ligand)
# chain: B1 chain with S166H, Q167A
# Target: T1, CNTF receptor-α (CNTFRα)
# Test: solid phase binding assay on CNTFRα
# Experimental: The relative binding affinities to CNTF receptor-α (CNTFRα) of hCNTF and different hCNTF variants were determined by solid phase binding assay as previously described (10). […] These variants, like DH-CNTF, have increased utility for treatment of obesity and associated diseases, such as diabetes.
row,Relative Binding (hCNTF = 1),Binder
1,1.1 relative (hCNTF = 1),B1
2,30 relative (hCNTF = 1),B2
3,13.5 relative (hCNTF = 1),B3
4,9 relative (hCNTF = 1),B4
5,6.9 relative (hCNTF = 1),B5
6,11.7 relative (hCNTF = 1),B6
7,7.5 relative (hCNTF = 1),B7
8,4.1 relative (hCNTF = 1),B8
9,11.7 relative (hCNTF = 1),B9
10,32 relative (hCNTF = 1),B10
11,0.07 relative (hCNTF = 1),B11
12,8.8 relative (hCNTF = 1),B12
13,3.1 relative (hCNTF = 1),B13
14,3.6 relative (hCNTF = 1),B14
15,21 relative (hCNTF = 1),B15
16,66 relative (hCNTF = 1),B16
17,9.6 relative (hCNTF = 1),B17
18,3.3 relative (hCNTF = 1),B18
19,51 relative (hCNTF = 1),B19
20,2 relative (hCNTF = 1),B20
21,9.6 relative (hCNTF = 1),B21
22,22.8 relative (hCNTF = 1),B22
23,8.1 relative (hCNTF = 1),B23
24,13.1 relative (hCNTF = 1),B24
25,8.4 relative (hCNTF = 1),B25
26,11.8 relative (hCNTF = 1),B26
27,12.4 relative (hCNTF = 1),B27
28,8.8 relative (hCNTF = 1),B28
